According to patent US20190144537A1:
Changes are numbered by the printed parent chain.

B1: 28042.1 antibody (antibody, human IgG1, kappa, V domains shown)
VH: EVQLLESGGGLVQPGGSLRLSCAASGFTFSDYMMSWVRQAPGKGLEWVSWIRSSGGTTLYADSVKGRFTISRDNSKNTLYLQMNSLRAEDTATYYCARVGGGTTGYAFDIWGQGTMVTVSS
VL: DIQMTQSPSSLSASVGDRVTITCRASQSISSYLNWYQQKPGKAPKLLIYGASSLQSGVPSRVSGTGSGTDFTLTISSLQPEDFATYYCQQSYSPSFTFGPGTKVDFER
B2: 28042.2 antibody (antibody, human IgG1, kappa, V domains shown)
VH: B1 VH
VL: B1 VL with S31N, G50A

Molecular target: cynoNotch3 monomer (cyno)
Test: binding to cynoNotch3 monomer at 25° C., protocol similar to that for hNotch3 (method not named)

| Kd | Binder |
| --- | --- |
| 0.00535 µM | B1 |
| 0.214 µM | B2 |
